The chains are these.
B1: Phage clone J479B08 displaying Peptide-26 (peptide, not shown: large carriers)
peptide: GGNCHDPDIPAYVLCS
B2: Phage clone J466C02 displaying Peptide-25 (peptide, not shown: large carriers)
peptide: GGQGCGTIADPEPHCW
B3: Phage clone J467D04 displaying Peptide-28 (peptide, not shown: large carriers)
peptide: GGLCMIGDWLPGDVCL
B4: Phage clone J465E03 displaying Peptide-21 (peptide, not shown: large carriers)
peptide: GGIQCHDPDLPSPCYI
B5: Phage clone J465F09 displaying Peptide-22 (peptide, not shown: large carriers)
peptide: GGEWCLFDPDVPTCQD
B6: Phage clone J457A04 displaying Peptide-20 (peptide, not shown: large carriers)
peptide: GGMSDCGDPGVEICTH
B7: Phage clone J465D07 displaying Peptide-23 (peptide, not shown: large carriers)
peptide: GGLGCNDIDPGEQCIV
B8: Phage clone J467F08 displaying Peptide-27 (peptide, not shown: large carriers)
peptide: GGLCPINDWEPQDICW
B9: Phage clone J466C07 displaying Peptide-24 (peptide, not shown: large carriers)
peptide: GGLECFDPEIPEAFCI
B10: Phage clone J476C07 displaying Peptide-19 (peptide, not shown: large carriers)
peptide: GGDSVCADPEVPICEI

The text below walks through data of patent US20240376226A1.

Chain of neutravidin (P02701 25-152): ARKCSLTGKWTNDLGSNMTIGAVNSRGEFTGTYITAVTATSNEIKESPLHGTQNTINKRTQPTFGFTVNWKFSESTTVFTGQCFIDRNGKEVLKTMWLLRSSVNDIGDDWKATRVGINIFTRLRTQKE

The test concerns the target neutravidin (UniProt P02701). As to the kind of experiment: phage ELISA, neutravidin alone.
For the molecule B1, the NAv bkgd stood at 0.084.
Molecule B2 came in with an NAv bkgd of 0.061.
Turning to B3, the NAv bkgd was determined as 0.058.
B4: the NAv bkgd worked out at 0.052.
B5: the NAv bkgd is 0.051.
Molecule B6 came in with an NAv bkgd of 0.092.
With B7, the NAv bkgd is 0.055.
Molecule B8 yielded an NAv bkgd of 0.062.
Consider B9, for which the NAv bkgd is 0.053.
As for B10, the NAv bkgd came to 0.051.
